Laboratory results published in patent US20210275685A1.

Experiments:
[1] = biological target: human ADAM9 (Disintegrin and Metalloproteinase Domain-containing Protein 9), on cells (human) (UniProt Q13443); assay: IHC staining of human tumour tissue: Breast CA (USA-00329); antibody at 0.4 µg/mL
[2] = biological target: human ADAM9 (Disintegrin and Metalloproteinase Domain-containing Protein 9), on cells (human) (UniProt Q13443); assay: IHC staining of human tumour tissue: NSCLC (ILS10901), Adenocarcinoma; antibody at 0.4 µg/mL
[3] = biological target: human ADAM9 (Disintegrin and Metalloproteinase Domain-containing Protein 9), on cells (human) (UniProt Q13443); assay: IHC staining of human tumour tissue: NSCLC (ILS10108), Large Cell Carcinoma; antibody at 0.4 µg/mL
[4] = biological target: human ADAM9 (Disintegrin and Metalloproteinase Domain-containing Protein 9), on cells (human) (UniProt Q13443); assay: IHC staining of human tumour tissue: Gastric CA (ILS-450 A); antibody at 0.4 µg/mL
[5] = biological target: human ADAM9 (Disintegrin and Metalloproteinase Domain-containing Protein 9), on cells (human) (UniProt Q13443); assay: IHC staining of human tumour tissue: Colon CA (ILS11330 B); antibody at 0.4 µg/mL
[6] = biological target: human ADAM9 (Disintegrin and Metalloproteinase Domain-containing Protein 9), on cells (human) (UniProt Q13443); assay: IHC staining of human tumour tissue: NSCLC (ILS7115 D), Squamous Cell Carcinoma; antibody at 0.4 µg/mL
[7] = biological target: human ADAM9 (Disintegrin and Metalloproteinase Domain-containing Protein 9), on cells (human) (UniProt Q13443); assay: IHC staining of human tumour tissue: Colon CA (ILS10369 B); antibody at 0.4 µg/mL
[8] = biological target: human ADAM9 (Disintegrin and Metalloproteinase Domain-containing Protein 9), on cells (human) (UniProt Q13443); assay: IHC staining of human tumour tissue: Colon CA (ILS10341 B); antibody at 0.4 µg/mL
[9] = biological target: human ADAM9 (Disintegrin and Metalloproteinase Domain-containing Protein 9), on cells (human) (UniProt Q13443); assay: IHC staining of human tumour tissue: NSCLC (ILS7223), Squamous Cell Carcinoma; antibody at 0.4 µg/mL
[10] = biological target: human ADAM9 (Disintegrin and Metalloproteinase Domain-containing Protein 9), on cells (human) (UniProt Q13443); assay: IHC staining of human tumour tissue: Prostate CA (ILS20758-D3); antibody at 0.4 µg/mL
[11] = biological target: human ADAM9 (Disintegrin and Metalloproteinase Domain-containing Protein 9), on cells (human) (UniProt Q13443); assay: IHC staining of human tumour tissue: Colon CA (AGR-00237 B); antibody at 0.4 µg/mL

Sequence of human ADAM9 (Disintegrin and Metalloproteinase Domain-containing Protein 9), on cells (human) (Q13443 206-819): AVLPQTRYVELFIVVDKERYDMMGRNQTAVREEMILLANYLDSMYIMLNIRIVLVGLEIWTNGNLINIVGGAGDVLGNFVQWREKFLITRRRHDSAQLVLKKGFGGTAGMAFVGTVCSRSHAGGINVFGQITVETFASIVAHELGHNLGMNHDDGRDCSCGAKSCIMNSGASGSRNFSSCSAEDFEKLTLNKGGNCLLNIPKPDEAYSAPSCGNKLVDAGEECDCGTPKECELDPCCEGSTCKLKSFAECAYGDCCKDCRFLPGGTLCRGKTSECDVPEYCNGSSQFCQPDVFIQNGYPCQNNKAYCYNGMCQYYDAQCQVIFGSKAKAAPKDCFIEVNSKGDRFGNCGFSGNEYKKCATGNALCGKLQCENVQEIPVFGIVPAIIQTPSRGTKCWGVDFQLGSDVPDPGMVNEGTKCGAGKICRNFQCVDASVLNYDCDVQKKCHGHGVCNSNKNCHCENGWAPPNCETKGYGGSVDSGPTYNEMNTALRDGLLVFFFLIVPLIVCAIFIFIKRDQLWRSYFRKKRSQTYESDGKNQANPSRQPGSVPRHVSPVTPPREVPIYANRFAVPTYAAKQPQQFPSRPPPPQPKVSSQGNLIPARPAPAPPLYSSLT

B1: MAB-A (antibody, V domains shown)
VH: QVQLQQPGAELVKPGASVKLSCKASGYTFTSYWMHWVKQRPGQGLEWIGEIIPINGHTNYNEKFKSKATLTLDKSSSTAYMQLSSLASEDSAVYYCARGGYYYYGSRDYFDYWGQGTTLTVSS
VL: DIVLTQSPASLAVSLGQRATISCKASQSVDYDGDSYMNWYQQIPGQPPKLLIYAASDLESGIPARFSGSGSGTDFTLNIHPVEEEDAATYYCQQSHEDPFTFGGGTKLEIK
Score [1]: 3 | Score [2]: 3 | Score [3]: 3 | Score [4]: 2 | Score [5]: 2 | Score [6]: 1 | Score [7]: 1 | Score [8]: 2 | Score [9]: 3 | Score [10]: 3 | Score [11]: 3
